Data published in the domain aggregation screens of Martell et al. (2025).

Assay: soluble fraction after stress (log2 fold change); higher = more stays soluble; pooled small domains, quantitative proteomics
Conditions: stress: 50 degC
How it was run: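 Pooled custom libraries of small protein domains were measured in a high-throughput format, with quantitative proteomics as the read-out. Each library was stressed at 50°C. Aggregation propensity is given as the base-two logarithm of the fold change in how much of each protein stays soluble after the stress. Higher values mean a larger share of the protein remains in solution.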

| Sequence | soluble fraction (log2) |
| --- | --- |
| HMGLVVIGTEAGYPAEKAGILAGDRIRKLNGAAVPDYDTFLTALAARKGEPSAIELERDGKTLEVTVSPL | 0.0119 |
| HMQIVHKHLQLQPDQGALRAALYSHKAVVAEQVNEQGAINLEIKLAESDFLRLLKSSGLKLQDLVSLS | -0.205 |
| HMPYNRRYLISNADGALYTVEENGLVKLEETNLTAELFETRGMQDIPDGKLLITLHDPTILYWHDSENLFP | -1.19 |
| HMVDGTPALTDLKKVSKPGRRHYTGSQEIPRVLNGLGISIVSTSKGIMTGAQARRQKVGGELLAFV | 0.16 |
| HMEKKDTYTVKNGDSLWGIARTELGDGGRFREIYTLNADTIEAEAKKRGRSSSSEGHWIYPGSVLRLP | 0.0469 |
| HMISQLRGKVLGTDRDALVIDVGGVGFRVSATAGARALAGQSGNEARLFTEMVVREDSIDLFGF | 0.217 |
| HMDVPNLVGEEIKDVRRTLRHFQLEVIGEGSKIVSQVPKHGQRLPENTTIRVYLN | 0.155 |
| HMAITVPEGATLSDAAVLLKQAGAVRSADAFLTRAKVFGGSTPIKAGEFVIPVQASNKDILAILQGGK | 0.021 |
| HMGGGFLVPSLVGKSLEEARSLSELRGFKLEVGDYVISSEYPAGRVTRQNPANGAKGQEGDVIKVEVSS | 0.0353 |
| HMAGPVLTPEEAEVLRILADHGEMTVDNISAEGKMSAAVVLRGLGVLSAYGLVAPGGPGRWRSE | -0.253 |
| HMGIVAPGTLKHLHAVGNSYYPDWETKRHELVTAVTKGRTSSSKELYEAEANRLITRIEELLMTAAQSV | -0.0132 |
| HMYLELVTKEGGSFDEPDYWGRRKLAYEIAGKTEGNYVVVKYTAEPATSDELDRVLNLNESVIRTKILRK | 0.0508 |
| HMGDLLTVDRVAATSGLGVDTIRYYQRLGLLDPPVRHGRRALYSTAHLDRLVEIRQLADEGFSLAQIATL | -1.08 |
| HMKHRTQMDIQQLPAIEGKGGFEYKISIIHLSTRIKYSEIHDNYNTTTIAKVYENAIERLPPF | -2.24 |
| HMQQDGSSSLGENMLNQELQARGVVPSEIPQEVWERVIQEAGKKSKREIYADIGLGRSLAAGFAQRLAA | 0.261 |
| HMIEDMQQYIKEIRQMVSGRLDMTRNLEDEEIRDTIAELVAEESRKQYMTLTEKREVIEGVFNSMR | -0.0273 |
| HMTYKPAADFKPSDTSSLKEGMKVEHPKFGFGTVMKMEEVGTERKARINFADFGEKTLLLSFAKLKIHEN | 0.0858 |
| HMKSAIGEEKAENFAFADLGMDPLSAEGVRTEFGFEQGQFVYKVYFTADGTEYEYWIKASDGSVVKKGMDL | -0.891 |
| HMVDLEINGRQTLQFVANKYGIPVEKLATDLNIPSDRFGEKLGRLRRQYAFTMNDVRKSILKNK | 0.00739 |

| Sequence | soluble fraction (log2) |
| --- | --- |
| HMQITNEGQIKLVISEVLNENQEQKKQYLSGKEQVLGYLIGKVMQKTKGKANPKLVNDLMIKELS | 0.257 |
| HMNSISDSELKALIKNNYLKFLKRIASDEEIEYHFNQIKNKTILLDELDSIFQNSQEYKDLVEHNNKIQN | -0.0724 |
| HMHKYQVGETVYYTSPTFGRAAATGSYIVVKLLPSEGDDYQYRIKSSGEAFERVAKESQLDR | -0.734 |
| HMKLTALWTANPKISAPIYSEPSTQSKTLGRIYQGASVKVYSFDPEWAYINSSGVVGYVLRRHLE | -0.323 |
| HMAPDYYALLGVPRNATTAEVRKAFRGKALEQHPDRGGDEESFRLLSKAYDVLSDSERRKYYDRTG | 0.0767 |
| HMPRELKVRDVSHQHAGHAGWREGGETHFEVDMKADVFAGTSRVAAHRMVNKVLANELASRVHALQLNLS | 0.0371 |
| HMAAQLAHVPAVTGRPLAEAQRILADNRLNAQVTQQPVAEPKLDGVVIAQKITEGTRTMRGATVPLIVGKY | 0.128 |
| HMNLDVPGIIKRAKQALNLKRDSELAEFLGVSRATVTNWAARNSIDFRLLLDKLGNTVDYNWLLLGKGNPK | -0.221 |
| HMDSNPLSEREQEVLQLVAKGASNQTIAEQLFLSNGTIRNYMTAIFNKLNANNRTDAVRIARENGW | -0.144 |
| HMQNLSELAYVNLRDALMQGQMKPGEELPLRPISRSFGISATPMREALLRLVTESALEMDSRGRISVP | -0.341 |
| HMGDFLLQVDFPPALLEMLPEGKRQAAIGVLSHDPRPAYQRTPGRVYGLNFAGHNIRFAVSENLLTVLEV | -2.08 |
| HMKDLTIRQQQFLNYIKDHLSLTGFPPTRSDIANEMGFKSPNAAEDHLRALARKGAIEIVPGTSRGIRLP | -0.24 |
| HMNNIGSKIKSAKILNNLDDNQLSEITGIDKLQLRSIQDGQVNPTKMELEIISKALKLPTNYFTK | -0.0222 |
| HMKEKLGEFENVFLSVDELQKLKSKLGAETESYIERLSNYIASSGKKYKSHYATILSWTQKDTK | -0.462 |
| HMEYTTEELDSLLKLYFQTHESINRNEFEQLTSYTRTTASRRLKTLVQAGKLQNIGLYRFPVYKPTEGNF | -2.49 |
| HMQQLAEQIPTDRPYISIAEAVVLFGISRDTIYRQIRKGNIPAVNLGERLTRISRIHIEAMFPKV | -0.563 |
| HMRKNVAGITPNVYGMGLKDAVYLLENAGYRVKVNGRGNVVRQSINSGTRIIKGQLIILDLD | -2.73 |
| HMKGQLVVFPNPASSNDMVRFNKNISFSIFDITGHLVDTKRNVNELSVGNLEAGTYILRTEQGDVLRMVI | -1.24 |
| HMEDQLDSLKDIIYDYLENNELYYNDLQEFKKIIIENMEFIHPNLNHKLIDNNFFKLINFKLEYNF | -0.0455 |

| Sequence | soluble fraction (log2) |
| --- | --- |
| HMDLSLQTFNELKTELTNNKITIDQFSEKINEFDITSDIFEISRELFLDDTLSLEDYLVVIENVLIN | -0.45 |
| HMKQPNFTVIETKILELLFQKDLSSREMQEILKISKDNLIFALQNLLEQEKIVLQTSNTYTVN | -1.15 |
| HMENPPISVVIPPSFRGQRIDKALGSLIGDYSRSKIQQWLQSGLVQSAGEPLLPKYTVLGNEQILIAVPS | 0.00382 |
| HMNYTSEDIKLASELFFHLLNNRILPANDVLASQYYDNNEIREILENMAEEGGLRIFGTRENLHLVSNGE | -0.432 |
| HMDDEAVQIMTLHISKGLEFDVVFALGLVSRTPESKEIEELEAEKQRQLYVAMTRAEKWLIVAA | -0.12 |
| HMSEKIDINNSNELELKQLPLTNEQIKSLIEFRRLHGEIQNIYELKNIDFFNIEKVHELKAHIEIKKII | -0.427 |
| HMIHSEEIQDHIFVKQLGEVFLRNHINYENIMKSWDDHTNVIKRFRRYPHRNKILNRESTIDEISFLKE | -0.0665 |
| HMKYNYEAQQSDELSLVKGSRIHVLEKSSDGWWKGEIDNVVGWFPS | -0.205 |
| HMSSTPEPPQAVLDLVNLREQARAGKDWTQSDAFRQQIAALGWTVKDTKDGPVVSLSPTTTE | 0.0968 |
| HMSNENIDQDELQAIIQKVLASNQDAVAKYKAGKTAVIGFLIGQVMRQLNKKIDVALAKKTLLVFLEK | -0.396 |
| HMFDDEELDTFAGRQSDSYDQQEVEQFSDVLHTMRQDEVQAWWRSLTLRGISLPDELKDEVIML | -0.538 |
| HMKTIQVGSTVRVNQGAKTYSGGGLASFVYKRNHKVSQLQGDRAVITYEGTVVAAVHVSDLSLIH | -0.062 |
| HMQAKDVEIPNFVGKTLAEANADNKDNFNFVVESKYDASKELGVILEQEPAADSKLVKSGSQITLKV | ≥ 0.62 |
| HMNIEIIEVQEESTPSEISKIISTESTKIIEDLLNLGVMASLETPLKNQDIEKLLEGYGYIVDIKP | -0.372 |
| HMGNGALLTLTVKERQVIQLVAEGKSNKQIARDLNVTPETIKSHMKNIFAKLKVDNRAQAAVMVQQ | -0.638 |
| HMRERLPFGFAQSKKVVLLSTESDTPKVLSVNWPSLDLYAELKRVIGRAFLLEIVSEEEFQAQVSDAYQRD | -2.24 |
| HMINRPVYVPLYTNLDVKDAAEIAEKLEENNIAYKLEDQGETILVNPEQKYKVRLMLAQEGLPKG | -0.0681 |
| HMSYTWHDMYLLAQEYQKEHGNLIIPRNYKGKNGLNLGYWLYKEKLKYRQGKLAPEKIIALEHIGIVWT | -1.21 |
